In US20240059758A1 (CORAT THERAPEUTICS, published 2024):

Legend:
[1] = molecular target: receptor binding domain (RBD) of SARS-CoV-2 glycoprotein S, wild-type (SARS-CoV-2, UniProt P0DTC2 319-591); assay: binding study, chain shuffling (example 19)
RBD mutant N501Y = RBD mutant N501Y (SARS-CoV-2, UniProt P0DTC2 319-591); assay: binding study, chain shuffling
RBD mutant K417N [2] = molecular target: T1, RBD mutant K417N (SARS-CoV-2, UniProt P0DTC2 319-591); assay: binding study, FIG. 46
RBD mutant K417N [3] = molecular target: T1, RBD mutant K417N; assay: binding study, chain shuffling

Measured: binding result

B1: hybrid antibody VL STE90-C11 / VH YU536-D04 (antibody, V domains shown)
VH: QVQLVQSGGGLVQPGGSLRLSCAASGLTVSSNYMSWVRQAPGKGLEWVSVIYSGGSTYYADSVKGRFIISRDNSKNTLYLQMNSLRAEDTAVYYCARDLVVMGLDVWGKGTLVTVSS
VL: DIVMTQSPSFLSASVGDRVTITCRASQGISSYLAWYQQKPGKAPKLLIYAASTLQSGVPSRFSGSGSGTEFTLTISSLQPEDFATYYCQQLNSYPPFTFGPGTKVDIK
binds: [1] | RBD mutant N501Y | RBD mutant K417N [2]

B2: hybrid antibody VL YU537-H11 / VH YU536-D04 (antibody, V domains shown)
VH: B1 VH
VL: QSVLTQPPSVSAAPGQKVTISCSGSSSNIGNNYVSWYQQLPGTAPKLLIYDTNKRPSGIPDRFSGSKSGTSATLGITGLQTGDEADYYCATWDSSLSVGVFGGGTKLTVL
binds: [1] | RBD mutant K417N [3] | RBD mutant N501Y

B3: hybrid antibody VL STE90-C11 / VH YU537-H11 (antibody, V domains shown)
VH: EVQLLESGGGLIQPGGSLRLSCAASGLTVSSNYMSWVRQAPGKGLEWVSVIYSGGSTYYADSVKGRFTISRDNSKNALYLQMNSLRAEDTAVYYCARGESGSPYGMDVWGQGTLVTVSS
VL: B1 VL
binds: [1] | RBD mutant K417N [3] | RBD mutant N501Y

B4: hybrid antibody VL YU536-D04 / VH STE90-C11 (antibody, V domains shown)
VH: QVQLVESGGGLVQPGGSLRLSCAASGLTVSSNYMSWVRQAPGKGLEWVSVIYSGGSTYYADSVKGRFTISRDDSKNTLYLQMNSLRAEDTAVYYCARDVADAFDIWGQGTMVTVSS
VL: DIQLTQSPSSLSASVGDRVTITCRASQGISSYLAWYQQKPGKAPKLLIYAASTLQSGVPSRFSGSGSGTDFTLTISSLQPEDFATYYCQQLNSYPITFGQGTKLEIK
binds: [1] | RBD mutant K417N [3] | RBD mutant N501Y

B5: hybrid antibody VL YU536-D04 / VH YU537-H11 (antibody, V domains shown)
VH: B3 VH
VL: B4 VL
binds: [1] | RBD mutant K417N [3] | RBD mutant N501Y

B6: hybrid antibody VL YU537-H11 / VH STE90-C11 (antibody, V domains shown)
VH: B4 VH
VL: B2 VL
binds: [1] | RBD mutant K417N [3] | RBD mutant N501Y
